This is an account of results in the nanobody polyreactivity screen of Harvey et al. (2022).

The data set can be described thus: yeast display, Sf9 membrane polyspecificity reagent, FACS + sequencing; frameworks hold sequencing errors. The gist of the method:
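After 36–48 hours of galactose induction, yeast (Saccharomyces cerevisiae BJ5465) displaying a synthetic nanobody library were stained at 4 °C for 1 hour with 10% biotinylated, detergent-solubilized Sf9 membrane reagent. Streptavidin microbeads enriched the stained cells before FACS sorting into low and high (top ~1%) gates on anti-HA and streptavidin fluorescence. Each clone's polyreactivity label reflects its gate of origin.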
In the case of “QVQLVESGGGLVQAGGSLRLSCAASGRIFWAYAMGWYRQAPGKERELVAVITIGGRTNYADSVKGRFTISRDNAKNTVYLQMNSLKPEDTAVYYCAAERHIITWPYSRYYYWGQGTQVTVSS”, the “polyreactivity (PSR sort gate)” value is “high polyreactivity”.
Turning to “QVQLVESGGGLVQAGGSLRLSCAASGRIFWFYTMGWNRQAPGKERELVARITTSGGSTYYADSVKGRFTISRDNAKNTVYLQMNSLKPEDTAVYYCAARPRDYHSFSLDYYYWGQGTQVTVSS”, the “polyreactivity (PSR sort gate)” value was “high polyreactivity”.
As for “QVQLVESGGGLVQAGGSLRLSCAASGRIFWGYAMGWYRQAPGKERELVAGITSGGITNYADSVKGRFTISRDNAKNTVYLQMNSLKPEDTAVYYCNKDFWGYPRVRYYYWGQGTQVNVSS”, the entry is “high polyreactivity”; as for “QVQLVESGGGLVQAGGSLRLSCAASGRIFWHNAMGWYRQAPGKERELVAAITGGGSTYYADSVKGRFTISRDNAKNTVYLQMNSLKPEDTAVYYCATLGSLRYYWPGYDYWGQGTQGTVSS”, “high polyreactivity”.
Consider “QVQLVESGGGLVQAGGSLRLSCAASGRIFWINAMGWYRQAPGKERELVAAISWRGDSTYYADSVKGRFTISRDNAKNTVYLQMNSLKPEDTAVYYCAAETRYLYDYWGQGSQVTVSS”, for which the “polyreactivity (PSR sort gate)” value is recorded as “high polyreactivity”.
As to “QVQLVESGGGLVQAGGSLRLSCAASGRIFWKYTMGWYRQAPGKERELVAAIRSGGGSTYYADSVKGRFTISRDNAKNTVYLQLNSLKPEDTAFYYCAAEPSQRYPWSGYDYWGQGTQVTVSS”, the “polyreactivity (PSR sort gate)” value was “low polyreactivity”.
“QVQLVESGGGLVQAGGSLRLSCAASGRIFWNYAMGGYRQAPGKERELVASINWSGGSTYYADSVKGRFTISRDNAKNTVYLQMNSLKPEDTAVYYCNKDGRVYLDHDYWGQGTQVTVSS”: the “polyreactivity (PSR sort gate)” value is recorded as “low polyreactivity”.
For the sequence “QVQLVESGGGLVQAGGSLRLSCAASGRIFWNYAMGWYRQAPGKERELVAGISSSDGSTYYADSVKGRFTISRDNAKNTVYFQMNSLKPEDTAVYYCAVDKGGRYHVENYYWGQGTQVTVSS”, the “polyreactivity (PSR sort gate)” value is on record as “low polyreactivity”.
Regarding “QVQLVESGGGLVQAGGSLRLSCAASGRIFWPYAMGWYRQAPGKERELVAAISSSGGSTYYADSVKGRFTISRDNAKNTVYLQRNSLKPEDTAVYYCNAYSGLSYRYGYSYWGQGTQVTVSS”, the “polyreactivity (PSR sort gate)” value is “high polyreactivity”.
“QVQLVESGGGLVQAGGSLRLSCAASGRIFWPYAMGWYRQAPGKERELVAAITSGGSTYYADSVKGRFTISRDNAKNTVYLQMNSLKPEDTAVYYCAKRSSGVSVPVAYGGIKRYNSWGQGTQVTVSS”: the “polyreactivity (PSR sort gate)” value is “low polyreactivity”.
For “QVQLVESGGGLVQAGGSLRLSCAASGRIFWQNAMGWYRQAPGKERELVAAISSRGGTTYYADSVKGRFTISRDNAKNTVYLQMNSLIPEDTAVYYCNAALLLRYRGFFTVAAYDYWGQGTQVTVSS”, the “polyreactivity (PSR sort gate)” value was “low polyreactivity”.
With “QVQLVESGGGLVQAGGSLRLSCAASGRIFWQNAMGWYRQAPGKERELVAAISSRGGTTYYADSVKGRFTISRDNAKNTVYLQMNSLKPEDTAVYYCNAALLLRYRGFFTVAAYDYWGLGTQVTVSS” the entry was “low polyreactivity”; with “QVQLVESGGGLVQAGGSLRLSCAASGRIFWRNTMGWYRQAPGKERELVAAITGSSTRTYYADSVKGRFTISRDNAKNTVYLQMNSLKPEDTAVYYCAARSYPYQVAAGYVTRFNYWGQGTQVTVSS”, “high polyreactivity”; with “QVQLVESGGGLVQAGGSLRLSCAASGRIFWSNAMGWYRQAPGKEREFVAAISSSGGRTYYADSVKGRFTISRDNAKNTVYLQMNSLKPEDTAVYYCAASNGYQAVTYDYWGQGTQVTVSS”, “high polyreactivity”.
With “QVQLVESGGGLVQAGGSLRLSCAASGRIFWSYAMGWYRPAPGKERELVAAIRSGGTTDYADSVKGRFTISRDNAKNTVYLQMNSLKPEDTAVYYCNREYRGAINYIYYYWGQGTQVTVSS”, the “polyreactivity (PSR sort gate)” value is reported as “low polyreactivity”.
In the case of “QVQLVESGGGLVQAGGSLRLSCAASGRIFWVYAMGWYRQAPGKERELVAAIDWSDGITYYADSVKGRFTISRDNAKNTVYLQMNSRKPEDTAVYYCGAEYVIYQTYNYWGQGTQVTVSS”, the “polyreactivity (PSR sort gate)” value is listed as “high polyreactivity”.
As for “QVQLVESGGGLVQAGGSLRLSCAASGRIFWWYAMGWYRQAPGKERELVAVIDDSGGITYYADSVKGRFTISRDKANNTVYLQMNSLNPEDTAVYYCARNVNAQKVLGGFDSWGQGTQVTVSS”, the “polyreactivity (PSR sort gate)” value is listed as “low polyreactivity”.
As for “QVQLVESGGGLVQAGGSLRLSCAASGRIFWYYAMGWYRQAPGKDWELVATITYSGVRTYYADSVKGRFTISRDNAKNSVYLQMNSLKPEDTAVYYCAAVPGASVYGYYWKFGYWGQGTQLTVSS”, the entry is “high polyreactivity”; as for “QVQLVESGGGLVQAGGSLRLSCAASGRIFWYYAMGWYRQAPGKEREFVAAIDWSGGRTYYADSVKGRFTISRDNAKNTVYLQMNSLKPEDTAVYYCAARDRAGRGKSYKPYYYWGQGTQVTVSS”, “high polyreactivity”; as for “QVQLVESGGGLVQAGGSLRLSCAASGRIFWYYAMGWYRQAPGKERELVARISSSGGSTYYADSVKGRFTISRDNAKNTVYLQMNSLKPEDTAVYYCAAEHYILYDYLWAYDYWGQGTQVTVSS”, “high polyreactivity”.
With “QVQLVESGGGLVQAGGSLRLSCAASGRIFWYYDMGWYRQAPGKERELVAAISQRGGSTYYADSVKGRFTISRDNAKNTVYLQMKSLKPEDTAVYYCAKRNPYWATREYWGLGTQVTVSS”, the “polyreactivity (PSR sort gate)” value is reported as “high polyreactivity”.
As to “QVQLVESGGGLVQAGGSLRLSCAASGRIFWYYGMGWYRQAPGKERELVAAITSGGRTYYADSVKGRFTISRDNAKNTVYLQMNSLKPEDTAVYYCAKGYVRYPSKGYTFDYWGQGTQVTVSS”, the “polyreactivity (PSR sort gate)” value is on record as “high polyreactivity”.
With “QVQLVESGGGLVQAGGSLRLSCAASGRIFWYYTMGWYRQAPGKERELVAAISNGGSTYYADSVKGRFTISRDNAKNPVYLQMNSLKPEDTAVYYCAADNFRNPDYYYWGQGTQVTVSS”, the “polyreactivity (PSR sort gate)” value is listed as “high polyreactivity”.
As for “QVQLVESGGGLVQAGGSLRLSCAASGRIFYAYAMGWYRQAPGKETELVAAITWRGGRTFYADSVKGRFTISRDNAKNTVYFQMNSLKPEDTAVYYCATRGAPYGMDYWGQGTQVTVSS”, the entry is “high polyreactivity”; as for “QVQLVESGGGLVQAGGSLRLSCAASGRIFYAYTIGWYRQAPGKERELVAAISGSGSTYYADSVKGRFTISRDNAKNTVYLQMNSLKPVDTAVYYCAADVTGGRKYDYWGQGTQVSVSS”, “low polyreactivity”.
On to “QVQLVESGGGLVQAGGSLRLSCAASGRIFYDNTMGWYRQAPGKERELVATISSAASTNYADSVKGRFTISRDNAKNTVYLQMNSLKPEDTAVYYCAAEWSTYGYQVLPVDYDYWGQGTQVTVSS”, for which the “polyreactivity (PSR sort gate)” value is given as “low polyreactivity”.
As for “QVQLVESGGGLVQAGGSLRLSCAASGRIFYDNTMGWYRQAPGKERELVAVISWSTGGTYADSVKGRFTISRDNAKNTVYLQMNSLKPEDTAVYYCATPLGYGPDLDYWGQGTQVTVSS”, the “polyreactivity (PSR sort gate)” value is “low polyreactivity”.
For the sequence “QVQLVESGGGLVQAGGSLRLSCAASGRIFYDYAMGWYRQAPGKEREFVAAIRWRGGSTYYADSVKGRFTISRDNAKNTVYLQMNSLKPEDTAVYYCATKSYYKFGYWGQGTQVTVSS”, the “polyreactivity (PSR sort gate)” value is “high polyreactivity”.
Regarding “QVQLVESGGGLVQAGGSLRLSCAASGRIFYFNAMGWNRQAPGKERELVADISSGGRTNYADSVKGRFTISRDNAKNTVYLQMNSLKPEDTAVYYCNADPYTSSGGYRGYDFDYWGQGTQVTVSS”, the “polyreactivity (PSR sort gate)” value is “low polyreactivity”.
On to “QVQLVESGGGLVQAGGSLRLSCAASGRIFYFNAMGWYRQAPGKERELVATITYIGGSTHYADSVKGRFTISRDNAKNTVYLQMNSLKPEDTAVYYCAVRDGKDTDTYWYGSWGQGTQVTVSS”, for which the “polyreactivity (PSR sort gate)” value is “low polyreactivity”.
